Reference: US20050201975A1 (published 2005)

B1: GAL4AD fusion protein encoded by plasmid 8-7 (splice variant of the human homologue of mouse C2PA) (other, not shown: small tags and cut ends)
chain: GRATQGAHARLTGPVRAPAAGGELGFHGAAAEAGPAAMNRFNGLCKVCSERRYRQITIPRGKDGFGFTICCDSPVRVQAVDSGGPAERAGLQQLDTVLQLNERPVEHWKCVELAHEIRSCPSEIILLVWRMVPQVKPGPDGGVLRRASCKSTHDLQSPPNKREKNCTHGVQARPEQRHSCHLVCDSSDGLLLGGWERYTEVAKRGGQHTLPALSRATAPTDPNYIILAPLNPGSQLLRPVYQEDTIPEESGSPSKGKSYTGLGKKSRLMKTVQTMKGHGNYQNCPVVRPHATHSSYGTYVTLAPKVLVFPVFVQPLDLCNPARTLLLSEELLLYEGRNKAAEVTLFAYSDLLLFTKEDEPGRCDVLRNPLYLQSVKLQEGSSEDLKFCVLYLAEKAECLFTLEAHSQEQKKRVCWCLSENIAKQQQLAASPPDSKKLHPFGSLQQEMGPVNSTNATQDRSFTSPGQTLIG
notes: Prey from a human spleen cDNA library (Clontech); also called colony 8-7
B2: GAL4BD-N1 fragment (1762-1829) fusion protein (other)
chain: MKLLSSIEQACDICRLKKLKCSKEKPKCAKCLKNNWECRYSPKTKRSPLTRAHLTEVESRLERLEQLFLLIFPREDLDMILKMDSLQDIKALLTGLFVQDNVNKDAVTDRLASVETDMPLTLRQHRISATSSSEESSNKGQRQLTVSPEFRRQHGQLWFPEGFKVSEASKKKRREPLGEDSVGLKPLKNASDGALMDDNQNEWGDEDLETKKFRFEDPSTCSQANSGRISYDL
notes: Expressed in yeast strain AH109 from pLOR67 (yeast two-hybrid bait); Notch1 numbering per AAG33848; also called bait protein

What was measured:
GAL4BD alone = biological target: T1, GAL4BD alone (UniProt P04386 1-147); test: yeast two-hybrid (HIS3, ADE2, LacZ reporters) in AH109
T1 construct: domain: GAL4BD; Three empty GAL4BD expression constructs were used as controls; also called pBD-GAL4cam; pBRIDGE
From the text: AH109pLOR67 and AH109 transformed with GAL4BD expression constructs pBD-GAL4cam (Stratagene), pBRIDGE (Clontech) and pLOR32 were used to assess whether the GAL4AD fusion proteins encoded by plasmids 8-2 and 8-7 interacted in a repeatable and specific manner with the Notch1(₁₇₆₂₋₁₈₂₉) domain of the GAL4BDN1(₁₇₆₂₋₁₈₂₉) fusion protein.
These yeast stains along with AH109pLOR67 were then transformed with either 8-2 (CBF 1 fragment) or 8-7 and plated on —WL, —WLH, —WLHA, —WLHAXαGAL plates. An alternative to XaGAL was also employed to assess LacZ expression. Yeast colonies grown on —WLHA plates, were transferred to filter paper by placing the appropriately sized piece of 3 mm Whatman paper over the screen plate and pressing down firmly over the whole surface of the plate. The orientation of the paper was then marked and the paper lifted with a jerking action, lifting the colonies from the agar. The yeast colonies were permeabilised by placing the filter papers in liquid nitrogen, and then allowing them to thaw. This cycle was repeated three times in total. 1.8 ml Z buffer containing X-gal was added to each filter paper, the papers were then monitored for the next 6 hours for the production of blue colour.

GAL4AD protein = biological target: T2, GAL4AD protein (UniProt P04386 768-881); test: yeast two-hybrid bait specificity check in AH109pLOR67
T2 construct: domain: GAL4AD
T2 sequence (looked up): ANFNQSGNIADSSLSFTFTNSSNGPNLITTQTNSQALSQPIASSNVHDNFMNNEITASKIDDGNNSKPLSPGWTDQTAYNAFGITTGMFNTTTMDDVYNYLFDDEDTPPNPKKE

Binder | binding result (GAL4BD alone) | binding result (GAL4AD protein)
B1 | no binding | –
B2 | – | no binding
